Experimental data published in a protein production outcome set (Wang et al. 2014).

experiment: label from the status in PepcDB records
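Note: failed if final PepcDB status was selected cloned or expressed and not failed if soluble or beyond.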

Row | Sequence | protein production
1 | MSNSKWWFLLVCFIPAITFASEGGEHSDPVTSVLLGVTTILFLAIIGRYLARLLNQPGVLGELLIGMIVGNLSYFFGSELVVILREGSAIYDVVKEMLAGISLNQAVTHVIHNSYYANQVIHALSGAEGTEYLKIAYVVDIFSRYGVIFLLFMVGLETSLSDLKKTGKESILVAVIGIVAPMILGFVVACFIIPNSNYKINLFIGATLSATSIGITASVLKEMNKLSTREARTILGAATLDDILGLIILAVVSSIVISGAVSIMVVMKIIILALLFFIGTLFMGPFVLRKAVDLFRFLEPWESKLFISFLFIMALAWLASFIQLAAIIGAFAAGVILHDDYFGEQKAHHKDHRSIHHLVSPLETILAPMFFTLIGIQVKLETFYDWNVIVLAGGLSVAAILGKLLSGLGANRRDDRLLIGIGMLPRGEVGLVFASIGRTIGVISDNLFTAIVLMIMITTFIAPPLLKMRYAKPKEDRNA | failed
2 | MSNTIIRSLCVVLFGIAAVPGIADAQSSAYTNSGAELFAGPAPDYPVVAQLPPGTAVDVFGCLSDYSWCDVALPGVRGWIDAQQLDYPYQGNYVPLLEYGAIIGVPVTGFAIGTYWDRYYRHRPWFHDRDRWEHRAEPRVGPGGMPPAYYGRPQPGWPAQREPRGAPPVQHDARPSATRGGWNGPNRAPAPQVAPAPARAPAPMPAPAPMPAPAPIPGAAGVRQPAPPPAQPAQPAPSGGAVQMMPPAHQGGGGYGGRPQGGGDGGGNHGGGGGRGRSDEFRR | failed
3 | MSNYAAGLGKPGSGKRRIRDLLNQPDNRVCADCGASVPKWAKYQSIHLLKSCGVHRSLGTHILKVLSVTLDEWSDEEVDSMIETGGNASANSIYEAFVPDTCSKPGPDVNHDQRMRFIR | failed
4 | MSPAPPRGPGMSQARSLSLILAAVLASLLPVTGSQAGEPGRALWVMSYNIRYDNPDDRPDWRTRRGPMVEQIRFFAPDILGLQEALPAMVDQLAGDLAGYAHYGVGRDDGARLGETTTIFYRAERFQRVLARTYWCSPTPDTPSKAYDAALPRTFTRLVLKDRITGVTFDVRNAHLDHVGAESRAKCAAQILALAPWPKARLITLGDFNSAPEEAPYRLLTAPEGPYRDARAAASSVFSPSTGTFNRFTPASIGPPIDYIFVDRRLNVARFAVPTDVADAGVISDHFPVLAEITLSPKTRAKAKP | failed
5 | MSPGPQSGGQERGSMERKMVELEDTGLTFATEVDLERLQALAAEWLQVIGEDPGREGLLKTPERVAKAWAFLTRGYRQRLEEVVGGAVFPAEGSEMVVVKGVEFYSMCEHHLLPFFGKVHIGYIPDGKILGLSKFARIVDMFARRLQVQERLAVQIAEAIQEVLEPQGVGVVVEGVHLCMMMRGVEKQHSRTVTSAMLGVFRENQKTREEFLSHLRDGTA | not failed
6 | MSPIALARLLTLAAVWGASFLFMRIIAPELGTVPTAFFRVSIACLGLIVILAAARVRWNFQGKLGACLVLGMINSGIPATFYSVAAQVLPAGYSAIFNATTPLMGVLVGVLFFREPMTLAKLCGIFLGLFGVGILSGAGPVALDMALLQGALACLAATTCYGFAGFLARRWISGLDSRLSALGSMLGATLMLTPLFGWSALTQPPASWGGWEVWLSLLGLGLLCTAFAYILYFRLLEEIGPVKASTVTFLIPVFGVLWGAWLLNEPLSMAHLYGGLLIGLALWLVLRPARS | failed
7 | MSPIEHAVISAAGIGSRLGLNKPKCLVEVGGKTLLAQHLERLAEIPNVWVVVGFQEELVIEQVRNLRRDAIIVRNPDFDRTNTLQSIHRVSRYLDRRFLAVDGDTFIENRSFERFLRAAAGQAGLIGVSRYTTSDGVRVLLDAGGEAVTAFTREPQHAYEWTGIAILRPDMVVDRPIYVYQALEPYLPLPAQELDAFDIDTASDLDMARRVHLNNWNLND | failed
8 | MSPIILSITIIAYFMILFAISYIAGHKADNEGFFVGNRKSAWYIVAFAMIGSTISGVTFVSVPGMVQASGFSYLQMVLGFIVGQFIIAFILVPLFYRMNLVSIYEYLENRFGASSYKTGAWFFFISKMLGAAVRLFLVCLTLQLLIFEPFHIPFIINVILTVLIVWLYTFRGGVKSLIWTDVLKTFCLVVSVVLCIYYIASSLHLNFSGLVSTISDNDLSKMFFFDDVNDKRYFFKQFLAGVFTVIAMNGLDQDMMQRNLSCKNFRDSQKNMITSGISQFFVILLFLMLGVLLYTFTARQGIENPGKSDELFPMIATGNYFPGIVGILFIIGLIASAYSAAGSALTALTTSFTVDILNAHKKDEAALSKIRKHVHIGMAFVMGIVIFVFNLLNNTSVIDAIYTLASYTYGPILGLFAFGIFTKKQVYDPYIPLVAILSPALCYVLQRNSEAWFDGYQISYELLILNAAFTFLGLCLLIKRKSSVAPINNSLIKKH | failed
9 | MSPKKDKFLDNAQKFLVKGQLDRALREYEQAVAIDPKDVRVRQKYAELLVRANRKDDALKEFEVIGKYYSDNGFYLKAIAVYKQIQKLTPSNLDISLTLGALNEKQGLIGNALAEYKFVFDHYERSNRFIDAVAVLEKMLAADRDNLNIRLKLAETRHRANLIDDAYHDYTELARELRSKGDNAAYTRVCERIASMFPDRKDFLLTVAENQIRDGKAAAAIPVLKQIVGDDRWNPKALYLLADAARAVADPAMVKGAYGQIIKRFPGEITAIKGFLFSLKAEGNVDEAVRVLRHVEPELIKAEPETLEQFYLSFRDLSPDHPGIAEGLLRIRGTAGVDEPEPMVEQVPDVAEPEKEADFAPQPEESDSVMEEPPAEDIPWEEEIDISFDSDGASVEGNRPTEGEASESPSFLHDEGMSLVEADESPIRFDDSSEEETREVEVELADFSSITPDWLDGVPDSAMDKPGETTFSEGLSLDFTDGELEDVIPPPPLDSPMPKPDKYGLDGLFSAFKKGVGEQLTQDDTESHYSLGIAYKEMGLFDDAIVEFQSAARDPRRLADCITLQGICSREKGDPAKAEEYFRSGLAVEGLNREERLCLTYELALLYEMIGDRTRALAGYREALALNPGFRDVAQKIAILRSDGDTHDAADLELLDLDEVEEGAG | failed
10 | MSPMSRAGTTVMRRIILMLIYCCLGTGLAGCDYTLREAAIVAPVDPPGGDPVQEPTDVKYYPSDEPVRLGLEHFNRGSYGLSQRYFKDAVEKSPKDLTAWIGLAASYDRLRRFDLADQAYAQAIRLGGETVQILNDQGYSYMLRGNLSAARRKFEKAYSLDPGNPVIANNLELLNGSRRFIERPPNNQP | failed
11 | MSPPLDHAWIAARIPHSGAMCLLDQVVTWDDTHIRCTTTSHRAPDNPLRAHGRLAAVCGIEYAAQAMAVHGAILGNAQDRPRAGFLASVRSVEAHVERLDTIEAPLTIEAERIGGDGNNVLYRFSVRCGERVLLTGRAAVVLDAAGLGLPDAGALAKANAQARLEHHHHHH | failed
12 | MSPTSMYIAWGWKDIIPQLPALIHAFQTSEMNTPKMRRLCKFTALPEAMNNIGDRSDVYSFRIFLGTIITVKVSYETLDRLTARHTSLRCYRVACLRIKYAYYTNNNASPGHSFNIKLNIDTGVKGSI | failed
13 | MSQAIPSSRVGVKINEWYKMIRQFSVPDAEILKAEVEQDIQQMEEDQDLLIYYSLMCFRHQLMLDYLEPGKTYGNRPTVTELLETIETPQKKLTGLLKYYSLFFRGMYEFDQKEYVEAIGYYREAEKELPFVSDDIEKAEFHFKVAEAYYHMKQTHVSMYHILQALDIYQNHPLYSIRTIQSLFVIAGNYDDFKHYDKALPHLEAALELAMDIQNDRFIAISLLNIANSYDRSGDDQMAVEHFQKAAKVSREKVPDLLPKVLFGLSWTLCKAGQTQKAFQFIEEGLDHITARSHKFYKELFLFLQAVYKETVDERKIHDLLSYFEKKNLHAYIEACARSAAAVFESSCHFEQAAAFYRKVLKAQEDILKGRVFICLLRKKVMMCLAVTLVFGSMSFPTLTNSGGFKESTDRNTTYIDHSPYKLSDQKKALS | failed
14 | MSQDLIRAAFEKRLSDWAKARTPALPVAWQNTKFTPPAAGVYLRAYVMPAATISRDAAGDHRQYRGVFQVNVVMPIGDGSRSAEQVAAELDALFPVNLVMQSGGLAVRVRTPISNGQPTTGDADHTVPISLGYDVQFYPE | not failed
15 | MSQDRIAGIDVATNSTDISNIINEMIICIKGKQMPEVHEKAMDHLSKMIAANSRVIRDSNMLTERECVQKIMKLLSARYKKEEGKTVSDHFNELYRKLTLTKCDPHMRHSLMTHLLTITDNSDAEKAVASEDPRTQCDNLTQILVSRLNSISSSIASLNEMGVVNGNGVGAAAVTGAAAVTGAAAVTGAAAVTGAAASHSYDATQSSIGLRKQSLPNYLDATKMLPESRHDIVMSAIYSFTGVQGKYLKKDVVTGRFKLDQQNIKFLTTGQAGMLLRLSELGYYHDRVVKFSDVSTGFNAIGSMGQALISKLKEELANFHGQVAMLHDEMQRFRQASVNGIANKGKKDSGPDAGDEMTLFKLLAWYIKPLHRMQWLTKIADACQVKKGGDLASTVYDFLDNGNDMVNKLVEDFLTAICGPLVRMISKWILEGGISDMHREFFVKSIKDVGVDRLWHDKFRLRLPMLPKFVPMDMANKIFMTGKSINFLREICEEQGMMKERDELMKVMESSASQIFSYTPDTSWHAAVETCYQQTSKHVLDIMVGPHKLLDHLHGMRRYLLLGQGDFISILIENMKNELERPALDIYANDLTSMLDSALRCTNAQYDDPDILNHLDVIVQRPFNGDIGWNIISLQYIVHGPLAAMLESTMPTYKVLFKPLWRMKHMEFVLSMKIWKEQMGNAKALRTMKSEIGKASHRLNLFTSEIMHFIHQMQYYVLFEVIECNWVELQKKMQKATTLDEILEAHEKFLQTILVGCFVSNKASVEHSLEVVYENIIELEKWQSSFYKDCFKELNARKELSKIVEKSEKKGVYGLTNKMILQRDQEAKIFAEKMDIACRGLEVIATDYEKAVSTFLMSLNSSDDPNLQLFGTRLDFNEYYKKRDTNLSKPLTFEHMRMSNVFAVNSRFVICTPSTQE | failed
16 | MSQEQRMQKTFEVENHLGYRILRWVLLVALLSGILMSAVQVVLDAKRVSAELERDAAQTLAMVEDSATQAVFSIDDTLAQQVVDGLFALEPIHMAKITHPDGDELGDRLRPLQDSPFRPLTDPIFGQVREYRESLTRGSNPDLVYGYLEVHYDTAPYARTWLGRALVTFASGIALALILGIVLFVVFHLLLTRPLLRIVQSVKKVDPAHPDDRLVSIPEGHRADELGLWVNATNNLLVAIGDTQKKHREAEDRVTRLARYDTLTGLPSRDAFMEDLQGAIERAQEGHSSIALMVCGIDDFKSVNEQCGFRTGDTILQTVASRLTANLSSDRFNVARLGSDQFVIVEKHLRDGFQAAETAEKVLATIGSPINSGNHRISMTATLGISLFPSDADQADRLLQSAEQTMALAKQTGHNHFQFYVASIDKEIRERKQMEKDLAQALANHEFHLVYQPQINLETRRVIGAEALLRWEHPEHGMIPPDLFIPVAEANGSIVEIGQWVLDQACWQAARWASEGTHLRIAVNLSAVQLRQESIVDDILNTLKRHNIPAGRLELEVTETSFMTNLTDAVAKLHRLHRAGISIAVDDFGTGYSSLTYLKQMPVQHLKIDKQFIRDLLINEEDTRIANTIIDLGKSLNLTVVAEGVETAEQEYYLSQRGCALAQGYFFSKPLLPRDFANFVQTFHARIVENNA | failed
17 | MSQFAINIMFVGGSFLLYIAIAVWAKAGSTSDFYVAGGGVHPITNGAAIGADWMSAASFISMAGLIAAGGYANSTFLMGWTGGYVLLAMLLAPYLRKFGKFTVPEFIGDRYYSANARLVAVICLIVASVTYVIGQMAGAGVAFSRFLEVDATTGLIIAAVVVFVYAVLGGMKGITYTQVAQYCVLIVAYTIPAVFISIQLTGNPIPGLGMFSTHTDSGLPLLEKLNQVITDLGFNEYTADVDNKLNMVLFTLSLMIGTAGLPHVIIRFFTVPKVADARWSGGWALVFIALLYLTAPAVASMARLNLMTTIYPDGTQAAPIEYDERPNWVKEWEVTGLIQFTDKNEDGRIQLYNDVPAFEAEAQARGWNGNELVVNRDILVLANPEIANLPGWVIGLIAAGGLAAALSTAAGLLLAISSAVSHDLIKGRFNPSISDKGELMAARISMAVAIVVATYLGANPPGFAAQVVALAFGIAAASLFPALMMGIFSKRVNNVGATLGMLSGLLFTLIYIFVYKGWLFIPGTNNLPDTPENWVLGISPLSIGAVGALVNFAVAFAVSKATAEPPVEIQELVESVRYPRGAGTAQDH | failed
